Here are results for three molecules from patent US20160304615A1 (Regeneron, published 2016).

The target of assay [1] is T1, EGFRvIII-mmh (human, UniProt P00533 298-647, limits assumed).
T1 construct: Soluble monomeric protein; also called hEGFRvIII-mmh; hEGFRvIII.mmh
Put plainly: ELISA. The source says: (§1) To further characterize anti-hEGFRvIII mAbs, their binding specificity was examined by ELISA. […] Also, coated was an irrelevant peptide (control peptide) with or without biotin at its N-terminal. […] The plates were then washed and bound anti-EGFRvIII mAbs were detected with anti-human Fc antibodies conjugated with horse-radish peroxidase (HRP). […] Data analysis used a sigmoidal dose-response model within PRISM™ software.

Another assay has as its target T2, EGFR-mFc (human).
T2 construct: Soluble dimeric protein
In words: SPR 37C, receptor-capture; 37 C, receptor-capture format (EGFR-mFc captured). As to the method: (§2) Measurements were conducted on a T100 BIACORE™ instrument. […] In the receptor-capture format, either EGFRvIII-mFc or EGFR-mFc, was captured on the BIACORE™ chip and the respective antibodies flowed over. Kinetic association (kₐ) and dissociation (kd) rate constants were determined by processing and fitting the data to a 1:1 binding model using Scrubber 2.0 curve fitting software. Binding dissociation equilibrium constants (KD) and dissociative half-lives (t_{1/2}) were calculated from the kinetic rate constants as: KD (M)=kd/kₐ; and t₁₁₂ (min)=ln2/(60*kd).

Assay [2] addresses T3, full-length hEGFRvIII on cells (human, UniProt P00533 298-1210).
T3 construct: Expressed from vectors in HEK293, U87, B16F10.9, U251 and MMT 060562 cells; also called HEK293/EGFRvIII; HEK293/hEGFRvIII
In words: FACS, HEK293/EGFRvIII cells, directly labeled antibody. On the procedure:
(§3) To determine the specificity of the anti-EGFRvIII mAbs, their binding to HEK293, HEK293 cells expressing EGFRvIII (HEK293/EGFRvIII) and A431 cells, was analyzed by fluorescence activated cell sorting (FACS). HEK293/EGFRvIII cells were prepared by transfecting HEK293 cells with neomycin resistant DNA vectors constitutively expressing full-length hEGFRvIII (SEQ ID NO:147) using LIPOFECTAMINE™ 2000 transfection reagent (INVITROGEN™). At two days post-transfection, cells were placed under G418 selection for approximately two weeks. Populations positively expressing EGFRvIII were isolated via fluorescence activated cell sorting (FACS). The HEK293 cells expressing ˜3×10⁶ copies of EGFRvIII per cell were used in the experiment. […] In another set of experiment, anti-EGFRvIII antibodies were directly conjugated via their lysine residues with the fluorescent dye, ALEXA FLUOR® 488 Dye (INVITROGEN™), thereby eliminating the step using the secondary antibody. […] Controls I, II, III, IV and V are described above. MFI: Mean Fluorescence Intensity.

The target in assay [3] is T4, EGFRvIII-mFc (human).
T4 construct: Soluble dimeric protein
Put plainly: SPR 37C, mAb-capture.

The target of assay [4] is T1, EGFRvIII-mmh. In words: SPR 37C, mAb-capture.
Assay [5] deals with T4, EGFRvIII-mFc. In words: SPR 37C, receptor-capture. On the procedure:
as §2

The target in another assay is T5, EGFR-mmh (human, UniProt P00533 25-647, limits assumed).
T5 construct: Soluble monomeric protein; also called hEGFR-mmh
Put plainly: ELISA; ELISA, 25 C, EGFR-mmh coated on the plate.
Text: as §1
On the technique in general: ELISA stands for enzyme-linked immunosorbent assay.

For assay [6], the target named is T3, full-length hEGFRvIII on cells. Put plainly: cell-based or functional assay.
Assay [7] concerns the target T6, wild-type human EGFR on cells (human, UniProt P00533 25-1210).
T6 construct: Stands for transfected HEK293/hEGFRwt, endogenous EGFR of A431 and of parental HEK293 cells, and human EGFR of hEGFR mice; the cell line is named under assay; also called EGFRwt; hEGFRwt
Put plainly: FACS, A431 cells, directly labeled antibody. On the procedure:
as §3
On the technique in general: A flow cytometer gives signals particle by particle.

B1: H1H1913N (antibody, human IgG1, V domains shown)
VH: QVQLQQWGAGLLKPSETLSLTCAVYGGSFSGDYWSWIRQSPGKGLEWIGEINHSGSTNYNPSLKSRVTISIDTSKNQFSLKLSSVTAADTAVYYCARGGGDYYYGMDVWGLGTTVTVSS
VL: AIQMTQSPSSLSASVGDRVTITCRASQGIGNDLGWYQQKPGKAPNLLIYATSSLQSGVPSRFSGSGSGTDFTLTISSLQPEDFATYYCLQDYNYPWTFGQGTKVEIK
notes: Human IgG1 Fc; also called H3M1913N (same variable domains)
On to B1, for which the values for the concentration giving a half-maximal response (EC50) with EGFRvIII-mmh [1] and with EGFR-mmh were 2.14 nM and 2.55 nM, respectively. The dissociation constant (Kd) was at most 0.169 nM with EGFR-mFc, 22.6 nM with EGFRvIII-mFc [3], 7030 nM with EGFRvIII-mmh [4] and at most 0.0159 nM in the assay with EGFRvIII-mFc [5]. The off-rate (koff) is at most 1e-06 s⁻¹ with EGFR-mFc, 0.000316 s⁻¹ in the assay with EGFRvIII-mFc [3], 0.00114 s⁻¹ with EGFRvIII-mmh [4] and at most 1e-06 s⁻¹ in the assay with EGFRvIII-mFc [5]. The kon stood at 5930 M⁻¹ s⁻¹ in the assay with EGFR-mFc, 14000 M⁻¹ s⁻¹ with EGFRvIII-mFc [3], 163 M⁻¹ s⁻¹ in the assay with EGFRvIII-mmh [4] and 63000 M⁻¹ s⁻¹ in the assay with EGFRvIII-mFc [5]. Besides, the “HEK293/EGFRvIII MFI” value in [2] turned out to be 239000 MFI. Moreover, the “Ratio (EGFRvIII MFI/parental MFI)” value in [2] amounted to 49.8. Moreover, the T½ with EGFRvIII-mFc [3] is 37 min; in the assay with EGFRvIII-mmh [4], 10 min; with EGFRvIII-mFc [5], 11600 min.

B2: H1H1912N (antibody, human IgG1, V domains shown)
VH: EVQLVESGGGLVQPGRSLRLSCAASGFTFDDYAMHWVRQVPGKGLEWVSGISWNSGSIGYADSVKGRFTISRDNAKNSLYLQMNSLRAEDTALYYCAKDIHDYGKDYYYYYGMDVWGQGTTVTVSS
VL: EIALTQSPGTLSLSPGERATLSCRASQSVSSTYLAWYQQKPGQAPRLLIYGASSRATGIPDRFSGSGSGTDFTLTISRLEPEDFAVYYCQQYDSSPITFGQGTRLEIK
notes: Human IgG1 Fc; also called H2M1912N (same variable domains)
With B2, the half-maximal effective concentration (EC50) with EGFRvIII-mmh [1] was found to be 0.0118 nM. Besides, in the assay with EGFR-mFc, the dissociation constant (Kd) was found to be 22.9 nM, the T½ is 13 min, the koff stood at 0.000914 s⁻¹ and the on-rate constant (kon) was found to be 39900 M⁻¹ s⁻¹. In [2], the “HEK293/EGFRvIII MFI” value was 122000 MFI and the “Ratio (EGFRvIII MFI/parental MFI)” value was determined as 32.7. Also, in assay [6], the “Fluorescent Intensity of vesicles 4° C., Mean” value turned out to be 4910 and the “Fluorescent Intensity of vesicles 37° C., Mean” value came out at 370000. In the assay with EGFRvIII-mFc [3], this molecule displayed a Kd of 47.7 nM, a T½ of 12 min, a dissociation rate constant (koff) of 0.000971 s⁻¹ and an on-rate constant (kon) of 20400 M⁻¹ s⁻¹. In the assay with EGFRvIII-mmh [4], this molecule registered a Kd of 899 nM, a T½ of 0.7 min, a koff of 0.0164 s⁻¹ and a kon of 18300 M⁻¹ s⁻¹. Moreover, in the assay with EGFRvIII-mFc [5], the Kd was determined as 5.4 nM, the T½ turned out to be 22 min, the koff amounted to 0.000537 s⁻¹ and the kon turned out to be 99000 M⁻¹ s⁻¹. In assay [7], the “A431 MFI” value came out at 14300 MFI and the “Fold Above Background” value was determined as 2.1 fold. A half-maximal response in the assay with EGFR-mmh (EC50) required 0.0405 nM.

B3: H1H1863N2(Fuc+) (antibody, human IgG1, V domains shown)
VH: EVQLVESGGGLVQPGGSLRLSCAASGFPFSSYDMHWVRQATGKGLEWVSAIGTAGATYYPGSVKGRFTISRENAKNSLYLQMNSLRAGDTAVYYCARGDYVWGTYRPLFDYWGQGTLVTVSS
VL: DIQLTQSPSFLSASVGDRVTITCWASQGINNYLAWYQQKPGKAPKLLIYAASTLQTGVPSRFSGSGSGTEFTLTISSLQPEDFATYYCQQLNSYPLTFGGGTKVEIK
notes: the numerical identifier ties them; also called H1H863N2; H1H863N2(Fuc+)
With B3, the values for the T½ in the assay with EGFRvIII-mFc [3] and with EGFRvIII-mFc [5] were 14 min and 56 min, respectively.

The term EC50 denotes the concentration giving half of the maximal effect. A low value points to higher potency in that assay. By Kd is commonly meant the constant that tells how readily two partners part at equilibrium. High values mean a looser complex, low ones a tighter complex. In general, koff refers to the first-order rate constant of dissociation. High values mean fast dissociation, low ones slow dissociation. One may read the kon as the rate constant with which the complex forms. The low end stands for slower complex formation, the high end for faster complex formation.
